Assay results as given in US20110033929A1.

Key:
human Langerin (human) [1] = biological target: human Langerin (human) (UniProt Q9UJ71); test: immunogold electron microscopy, 4° C., Langerhans cells of epidermal cell suspensions; isotype control for DCGM4
human Langerin (human) [2] = biological target: human Langerin (human) (UniProt Q9UJ71); test: immunogold electron microscopy, 4° C., 5 nm gold goat anti-mouse IgG, Langerhans cells of epidermal cell suspensions
human Langerin (human) [3] = biological target: human Langerin (human) (UniProt Q9UJ71); test: cell-based or functional assay

UniProt Q9UJ71, sequence (Q9UJ71 whole entry V278A): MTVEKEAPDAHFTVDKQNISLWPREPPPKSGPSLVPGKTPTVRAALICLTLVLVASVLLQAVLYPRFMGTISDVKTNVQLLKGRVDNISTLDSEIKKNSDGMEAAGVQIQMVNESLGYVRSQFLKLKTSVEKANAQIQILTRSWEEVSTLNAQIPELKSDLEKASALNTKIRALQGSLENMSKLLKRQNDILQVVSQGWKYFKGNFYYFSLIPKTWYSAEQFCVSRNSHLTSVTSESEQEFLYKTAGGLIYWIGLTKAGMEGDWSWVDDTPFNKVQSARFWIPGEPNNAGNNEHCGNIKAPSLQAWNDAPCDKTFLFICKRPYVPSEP

For control mouse IgG1 (Sigma) (antibody), the gold granules/100 µm membrane (granules/100 µm) (human Langerin (human) [1]) was 1.3.
Work on monoclonal antibody DCGM4 yielded a gold granules/100 µm membrane (gold granules/100 µm membrane) (human Langerin (human) [2]) of 162, a half-life (t1/2) of DCGM4 at the cytomembrane (human Langerin (human) [3]) of 4.5 min and an internalization (decrease of cell-surface-bound antibody by FACS) (human Langerin (human) [3]) of 75%. For the same substance, the internalization rate k (human Langerin (human) [3]; scale: °/min) was 15.3.
